The target of data set [1] is T1, EpnF (Streptomyces hygroscopicus, UniProt V5RMU9). The experiment in a line: Semiquantitative epoxide capture assay (EpnF-catalyzed epoxyketone formation). The data set is classed as biochemical. Particulars: 1 μM EpnF; for EpnF-catalyzed conversion to epoxyketone (epoxide capture): 240 μM β-ketoacid substrate (FIG. 2). Here is the method:
Recombinant EpnF was diluted to 1 μM in 180 μL EpnF Buffer in an 1.5 mL Eppendorf tube. The β-ketoacid 11 was added at various concentrations to a total reaction volume of 200 μL. The mixture was incubated in a heated shaker at 37° C. and 225 rpm for 1 h. The reaction mixture (30 μL×3 technical replicates) was transferred to a white, opaque 96-well plate (PerkinElmer, OptiPlate-96). Each plate also contained 30 μL×3 technical replicates of EpnF Buffer as a negative control. To each well, 15 μL of 125 mM nicotinamide in EpnF Buffer was added and mixed by pipetting. The plate was sealed with an adhesive foil cover (VWR Adhesive Foil for Microplates) and heated in an oven at 80° C. for 1 h. The plate was cooled to rt and 25 μL of 15% (v/v) acetophenone in EtOH and 25 μL of 1 M potassium hydroxide in EtOH were added to each well, then mixed by pipetting. The plate was cooled on ice for 10 min, then 125 μL formic acid was added to each well. The plate was resealed and heated in an oven at 100° C. for 5 min. The plate was cooled on ice for 5-10 min, then analyzed (λex 370 nm, λem 430 nm) on a fluorescence plate reader (Molecular Devices Spectramax M3).
We adapted a reported epoxide capture assay [Nelis, H. J. C. F.; Sinsheimer, J. E. (1981) A sensitive fluorimetric procedure for the determination of aliphatic epoxides under physiological conditions. Anal. Biochem. 115, 151-157.] to 96-well plate format to detect formation of the epoxyketone products semiquantitatively. Each β-ketoacid substrate 11 was incubated with recombinant, purified EpnF (1 h), then reacted with nicotinamide and acetophenone (1 h) to form a fluorescent 1,6-naphthyridinone 24. The fluorescent signals were normalized to that resulting from the known substrate β-ketoacid 11n as a positive control [Zabala, D.; Cartwright, J. W.; Roberts, D. M.; Law, B. J. C.; Song, L.; Samborskyy, M.; Leadlay, P. F.; Micklefield, J.; Challis, G. L. (2016) A flavin-dependent decarboxylase-dehydrogenase-monooxygenase assembles the warhead of α,β-epoxyketone proteasome inhibitors. J. Am. Chem. Soc. 138, 4342-4345.].

Data set [2] addresses T1, EpnF. Nature of the data set: Enzyme kinetic analysis by SPE-MS/MS assay. Type of data set: biochemical. Particulars: for efficiency of EpnF-catalyzed conversion compared to parent substrate 11a (in words): quantitative SPE-MS/MS assay. Here is the method:
(§1) SPE-MS/MS analyses were carried out on an Agilent RapidFire 365 High-Throughput Mass Spectrometry System with 6495 triple quadrupole mass spectrometer. Determination of initial velocity: EpnF stock at 100 μM was diluted 10-fold in EpnF Buffer to a 10 μM working solution, which was further diluted to 8 concentrations (10-0.005 μM) in EpnF Buffer (intermediate volume 1350 μL, concentrations calculated for 1500 μL theoretical final volume corresponding to addition of substrate solutions below). The 8 EpnF enzyme dilutions were aliquoted (90 μL) into the corresponding 8 tubes of PCR tube strips (12 strips, one per time point; Thermo Scientific, AB-2000). The β-ketoacid 11 (20 mM in EtOH) was diluted to 10 μM in EpnF Buffer, then 10 μL of this solution was added to each of the tubes (1 μM final concentration, 100 μL final volume) to initiate the reaction. Samples were incubated in a heated shaker at 37° C. and 225 rpm for up to 120 min, and one tube strip was removed at each time point. Each tube was quenched with 5% formic acid in EpnF Buffer (100 μL), pipetted vigorously, and flash frozen on dry ice. Samples were thawed then centrifuged to precipitate protein and transferred to a conical-bottom 96-well plate (Thermo Scientific/Nunc, 249944) for SPE-MS/MS analysis. Measurement of Km and Vmax: Using the data from the initial velocity experiments above, an appropriate EpnF enzyme concentration was selected for each β-ketoacid 11 at which the rate of conversion to the epoxyketone 12 remained linear at 10 min (0.50 μM for 11n and 0.05 μM for all other substrates). Each substrate (20 mM in EtOH) was diluted to 1 mM in EpnF Buffer, then diluted to 8 concentrations (100-0.5 μM) in EpnF Buffer (intermediate volume 1350 μL, concentrations calculated for 1500 μL theoretical volume corresponding to addition of enzyme solutions below). The 8 substrate dilutions were aliquoted (90 μL) into the corresponding 8 tubes of PCR tube strips (12 strips, one per time point; Thermo Scientific, AB-2000). The EpnF enzyme stock solution was diluted in EpnF Buffer to the appropriate concentration for each substrate, then 10 μL of this solution was added to each of the tubes (100 μL final volume) to initiate the reaction. For the 0-min time point, 5% formic acid in EpnF Buffer was added to the β-ketoacid substrate before addition of the enzyme. Samples were incubated in a heated shaker at 37° C. and 225 rpm for up to 10 min, and one tube strip was removed at each time point. Each tube was quenched by addition of 5% formic acid in EpnF Buffer (100 μL), pipetted vigorously, and flash frozen on dry ice. Samples were thawed then centrifuged to precipitate proteins and the supernatants were transferred to a conical-bottom 96-well plate (Thermo Scientific/Nunc, 249944) for SPE-MS/MS analysis. Km and Vmax values for each substrate were calculated by Michaelis-Menten analysis. To obtain a quantitative assessment of EpnF substrate specificity, we developed a kinetic assay (10 min) using SPE-MS/MS (solid-phase extraction/triple quadrupole mass spectrometry; Agilent RapidFire 365 with 6495 MS) to enable direct detection of both substrates and products.

For data set [3] the following is noted: during isolation and characterization; cited from earlier work.
Substrate in data set [4]: CC(C)C[C@H](NC(=O)[C@H](CO)NC(=O)c1ccccc1)C(=O)C(C)(C)C(=O)O
The experiment in a line: Enzyme kinetic analysis by SPE-MS/MS assay. Type of data set: biochemical. Particulars: other: 0.05 μM EpnF; 37.0 °C. Here is the method:
as §1

Substrate in data set [5]: CC(C)CCCCC(=O)N[C@H](C(=O)N[C@@H](CC(C)C)C(=O)C(C)(C)C(=O)O)C(C)O
Nature of the data set: Enzyme kinetic analysis by SPE-MS/MS assay. The data set is classed as biochemical. Particulars: other: 0.05 μM EpnF; 37.0 °C. The method, then:
as §1

Substrate in data set [6]: CCCC(=O)N[C@@H](CO)C(=O)N[C@@H](CC(C)C)C(=O)C(C)(C)C(=O)O
The experiment in a line: Enzyme kinetic analysis by SPE-MS/MS assay. Type of data set: biochemical. Particulars: other: 0.50 μM EpnF; 37.0 °C. The method, then:
as §1

Substrate in data set [7]: C=C(C)C[C@H](NC(=O)[C@H](CO)NC(=O)CCCCC(C)C)C(=O)C(C)(C)C(=O)O
Nature of the data set: Enzyme kinetic analysis by SPE-MS/MS assay. Type of data set: biochemical. Particulars: other: 0.05 μM EpnF; 37.0 °C. Here is the method: as §1

Substrate in data set [8]: CC(C)CCCCC(=O)N[C@@H](CO)C(=O)N[C@@H](CC(C)C)C(=O)C(C)(C)C(=O)O
Nature of the data set: Enzyme kinetic analysis by SPE-MS/MS assay. The data set is classed as biochemical. To be noted: other: 0.05 μM EpnF; 37.0 °C. Here is the method:
as §1

Substrate in data set [9]: CC(C)CCCCC(=O)N[C@@H](C)C(=O)N[C@@H](CC(C)C)C(=O)C(C)(C)C(=O)O
The experiment in a line: Enzyme kinetic analysis by SPE-MS/MS assay. To be noted: other: 0.05 μM EpnF; 37.0 °C. The data set is classed as biochemical. The method, then:
as §1

The values below come from patent US20260234116A1, “CYTOTOXIC EPOXYKETONE COMPOUNDS, PRECURSORS, COMPOSITIONS, AND METHODS OF USE” (Memorial Sloan-Kettering Cancer Center, priority 2023, published 2026).

Take `C=C(C)C[C@H](NC(=O)[C@H](CO)NC(=O)CCCCC(C)C)C(=O)C(C)(C)C(=O)O` [Compound 11b, (S)-4-((S)-3-Hydroxy-2-(6-methylheptanamido)propanamido)-2,2,6-trimethyl-3-oxohept-6-enoic acid]: the “EpnF-catalyzed formation of epoxyketone (epoxide capture)” value in data set [1] (250 μM β-ketoacid substrate, 1 h, positive control 11n (FIG. 1)) is “lower levels”. In addition, the “converted more efficiently than 11n” value in data set [2] (relative to 11n) is “≈ 20 fold”.

With `CC(C)C[C@H](NC(=O)[C@H](CO)NC(=O)c1ccccc1)C(=O)C(C)(C)C(=O)O` [Compound 11o, (4S)-4-[(2S)-3-Hydroxy-2-(phenylformamido)propanamido]-2,2,6-trimethyl-3-oxoheptanoic acid], the “EpnF-catalyzed conversion to epoxyketone (epoxide capture)” value (“EpnF-catalyzed conversion to epoxyketone” below) in [1] is “also tolerated”. Besides, the “efficiency of EpnF-catalyzed conversion compared to parent substrate 11a (in words)” value in data set [2] was “slightly lower efficiency”.

As to `CC(C)CCCCC(=O)N[C@H](C(=O)N[C@@H](CC(C)C)C(=O)C(C)(C)C(=O)O)C(C)C` [Compound 11k, (4S)-2,2,6-Trimethyl-4-[(2S)-3-methyl-2-(6-methylheptanamido)butanamido]-3-oxoheptanoic acid], in data set [1], the “EpnF-catalyzed conversion to epoxyketone” value is given as “tolerated to a lesser degree”. Moreover, the “efficiency of EpnF-catalyzed conversion compared to parent substrate 11a (in words)” value in data set [2] was “low conversion”.

For the molecule `CCCCCCCCCC(=O)N[C@@H](CO)C(=O)N[C@@H](CC(C)C)C(=O)C(C)(C)C(=O)O` [Compound 11q, (4S)-4-[(2S)-2-Decanamido-3-hydroxypropanamido]-2,2,6-trimethyl-3-oxoheptanoic acid], in data set [1], the “EpnF-catalyzed conversion to epoxyketone” value is given as “permitted”. In addition, the “solubility (kinetic parameters could not be determined)” value in [2] (EpnF Buffer) is on record as “solubility limitations”.

With `CC(C)CCCCC(=O)N[C@H](C(=O)N[C@@H](CC(C)C)C(=O)C(C)(C)C(=O)O)C(C)O` (stereo partly drawn) [Compound 11l, (4S)-4-[(2S)-3-Hydroxy-2-(6-methylheptanamido)butanamido]-2,2,6-trimethyl-3-oxoheptanoic acid], in data set [1], the “EpnF-catalyzed conversion to epoxyketone” value is reported as “tolerated”. In addition, the “efficiency of EpnF-catalyzed conversion compared to parent substrate 11a (in words)” value in data set [2] is “slightly lower efficiency”.

`CCCC(=O)N[C@@H](CO)C(=O)N[C@@H](CC(C)C)C(=O)C(C)(C)C(=O)O` [Compound 11n, (4S)-4-((S)-2-Butyramido-3-hydroxypropanamido)-2,2,6-trimethyl-3-oxoheptanoic acid]: in [3], the spontaneous decarboxylation result is “can undergo spontaneous decarboxylation”. Also, the “EpnF-catalyzed conversion to epoxyketone” value in data set [1] is listed as “permitted”.

B1: EpnF (Streptomyces hygroscopicus) (protein)
chain: MSDSKSVNLFHRHGVPSFLEGIYQGRFEWDMISNFVAQDSADEKAGDAAVERLTDILRNRVNPTAVDATRELPEGLLEELRRTGFLNLQDSPDIGGLGLSSYNTFRVVQAAASWSVPVALVLGIQTAVGSGTYLRALPPGELHSYVEQRLLDGIISGSADTEPAGASNSARRTRAVPTDDGEAFLLTGEKIHIGNGPIADIVTVSAMLDEDGQDRPRLFFVETSDPGFSIRSRHEFMGVKGFPNAALVLDGVRVPRERMIVEVDPDTEVRITAELTMAVVRGRLHLITAPSLAISKLCLEWSRNFVNRRTIDGRPLGAREEIQHMVSSTMADVFAIQALAEWSLLPADQPDLGLNVAFEQNVTKAISAEICWRAADRTMDLLAGEGFETAPSKARRGAPALPLERFYRDARNLRISGGVSFLLQFWAARMSQFTYYGPDHAGQSAALSQDGGQQPCTDGLDPLNADHLRFAAAETRRLGAACQKFAADHPAPGLYEHQHRLIAFSRIADEILTMSVVLAKAARLHHEGRTEAQDLAAIYCAHARDRLAALWRQAEPVTAGPDHAAVSDAWLSGDDTYASLITGVITDVPPTADTHPGKR
Regarding B1, the Km (as a rule, the concentration of substrate that gives half-maximal velocity) amounted to 6.13 µM in data set [4]; 13.3 µM in data set [5]; 23.1 µM in [6]; 17.3 µM in [7]; 11.6 µM in [8]; 4.70 µM in [9]. Besides, the kcat (in general, the number of substrate molecules converted per active site and unit of time at saturation) in data set [4] turned out to be 0.0125 s⁻¹; in [5], 0.016 s⁻¹; in [6], 0.0067 s⁻¹; in [7], 0.114 s⁻¹; in data set [8], 0.071 s⁻¹; in data set [9], 0.025 s⁻¹. The kcat/Km (as a rule, the second-order rate constant that governs catalysis at low substrate concentration) in data set [4] turned out to be 1880 M⁻¹ s⁻¹; in data set [5], 1200 M⁻¹ s⁻¹; in data set [6], 290 M⁻¹ s⁻¹; in [7], 6580 M⁻¹ s⁻¹; in data set [8], 6120 M⁻¹ s⁻¹; in [9] it was 5320 M⁻¹ s⁻¹.
